Measurements published in publication PMC6702053 (Developmental cell, 2019).

Key:
Experiment in all cases: pull-down
[1] = biological target: T1, GST-PI31-S168D (phospho-mimetic mutant) (Drosophila melanogaster, UniProt Q9V637 1-270, S168D)
T1 sequence (looked up): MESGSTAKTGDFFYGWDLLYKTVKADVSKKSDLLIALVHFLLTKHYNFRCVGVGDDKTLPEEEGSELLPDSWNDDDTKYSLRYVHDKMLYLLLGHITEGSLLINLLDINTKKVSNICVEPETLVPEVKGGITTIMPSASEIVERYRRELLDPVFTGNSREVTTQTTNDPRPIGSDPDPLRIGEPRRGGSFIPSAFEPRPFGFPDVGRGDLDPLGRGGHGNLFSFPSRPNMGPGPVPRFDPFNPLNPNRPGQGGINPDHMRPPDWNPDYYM

[2] = biological target: T2, GST-tagged wild-type PI31 (GST-PI31-WT) (Drosophila melanogaster, UniProt Q9V637 1-270)
T2 sequence (looked up): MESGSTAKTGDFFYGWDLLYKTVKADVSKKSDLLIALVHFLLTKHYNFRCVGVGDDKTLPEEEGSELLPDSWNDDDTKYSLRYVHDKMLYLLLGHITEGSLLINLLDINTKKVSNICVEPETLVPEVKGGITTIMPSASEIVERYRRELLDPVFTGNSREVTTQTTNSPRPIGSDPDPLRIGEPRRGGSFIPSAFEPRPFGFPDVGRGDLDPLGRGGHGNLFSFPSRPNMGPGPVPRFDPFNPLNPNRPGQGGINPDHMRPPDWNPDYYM

[3] = biological target: T3, GST-PI31-S168E (phospho-mimetic mutant) (Drosophila melanogaster, UniProt Q9V637 1-270, S168E)
T3 sequence (looked up): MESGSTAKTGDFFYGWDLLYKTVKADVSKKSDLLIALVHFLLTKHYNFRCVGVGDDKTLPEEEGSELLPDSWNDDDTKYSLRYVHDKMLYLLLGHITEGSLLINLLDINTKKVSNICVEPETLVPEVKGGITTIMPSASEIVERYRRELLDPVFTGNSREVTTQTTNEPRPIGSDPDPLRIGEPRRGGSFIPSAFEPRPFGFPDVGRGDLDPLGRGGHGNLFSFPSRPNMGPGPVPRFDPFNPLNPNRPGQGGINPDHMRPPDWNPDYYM

Measured: binding result

B1: recombinant FLAG-dDYNLL1 expressed in E. coli (natural protein, Drosophila melanogaster, UniProt Q24117 1-89, looked up)
chain: MSDRKAVIKNADMSEEMQQDAVDCATQALEKYNIEKDIAAYIKKEFDKKYNPTWHCIVGRNFGSYVTHETRHFIYFYLGQVAILLFKSG
binds: all assays above
